In patent US9308238B2, “Compositions and methods for modulating EMT and uses thereof” (Whitehead Institute for Biomedical Research, priority 2010, dated 2016):

B1: BMP4: Recombinant BMP4 protein obtained from Stemgent (protein, UniProt P12644 293-408, looked up)
Bone morphogenetic protein 4: SPKHHSQRARKKNKNCRRHSLYVDFSDVGWNDWIVAPPGYQAFYCHGDCPFPLADHLNSTNHAIVQTLVNSVNSSIPKACCVPTELSAISMLYLDEYDKVVLKNYQEMVVEGCGCR
B2: SFRP1: Recombinant human SFRP1 protein (R&D Systems), secreted decoy receptor binding canonical and non-canonical Wnt ligands (protein, UniProt Q8N474 32-314, looked up)
Secreted frizzled-related …: SEYDYVSFQSDIGPYQSGRFYTKPPQCVDIPADLRLCHNVGYKKMVLPNLLEHETMAEVKQQASSWVPLLNKNCHAGTQVFLCSLFAPVCLDRPIYPCRWLCEAVRDSCEPVMQFFGFYWPEMLKCDKFPEGDVCIAMTPPNATEASKPQGTTVCPPCDNELKSEAIIEHLCASEFALRMKIKEVKKENGDKKIVPKKKKPLKLGPIKKKDLKKLVLYLKNGADCPCHQLDNLSHHFLIMGRKVKSQYLLTAIHKWDKKNKEFKNFMKKMKNHECPTFQSVFK

Columns and labels:
[1] = tested on: MSP-RAS primary tumorspheres; assay: Flow cytometry of CD44/CD24 in MSP-RAS primary tumorspheres; type: cell-based, human; settings: control tumorspheres 6.4%
Protocol: (§1) FIGS. 4A-4G. Autocrine Signaling controls tumorigenicity and metastasis of MSP-RAS cells. (FIG. 4A) Migration assay: RAS-transformed MSP (MSP-RAS) were seeded in Boyden Chamber migration assays and recombinant SFRP1 (1 μg/ml) and BMP4 protein (0.5 μg/ml) were added; *control vs. single treatment, p<1×10^−8, **single vs. double treatment with SFRP1 and BMP4 (S+B), p<1×10^−4, n=3. […] (FIG. 4E) Lung metastasis: fluorescence microscopy images of the major left lung lobe showing GFP-expressing metastatic nodules and quantification of the number of lung surface metastases; *control vs. SFRP1 treatment, p<0.05, **SFRP1 vs. BMP4 or double treatment (S+B), p<0.05, n=5 mice/group. (FIG. 4F) Liver metastasis: fluorescence microscopy images of the liver surface showing GFP-expressing micro-metastatic nodules after implantation of cells as described in (D) and quantification: 5 fields of liver surface were counted per mouse, *control vs. single treatment, p<0.05, **single vs. double treatment (S+B), p<0.05, n=5 mice/group. […]
Fluorescent activated cell sorting (FACS) and flow cytometry. […] Samples were sorted on a BD FACSAria SORP and analyzed on a BD LSRII using BD FACSDiva Software (BD Biosciences).

MSP-RAS cells [2] = assay: Boyden chamber migration assay, MSP-RAS cells; type: cell-based, human; settings: SFRP1 1 μg/ml, BMP4 0.5 μg/ml
Protocol: as §1

HTwist and MSP cells = assay: Boyden chamber migration assay, HTwist and MSP cells; type: cell-based, human
Protocol: FIGS. 3A-3E. Autocrine Signaling controls migration and mammosphere formation.
FIGS. 10A-10E. […] (FIG. 10C) Mammosphere assay: HTwist cells were treated daily during mammosphere formation (5 days) with proteins as described in (B); *control vs. single treatment, p<1×10^−5, **single vs. double-treatment, p<0.01, n(mammospheres)/1000 cells, n=6, (FIG. 10D) Migration Assay: HTwist and MSP cells were seeded into Boyden Chambers in the presence of TGF-beta Receptor I inhibitors A83-01 and SB431542 (SB43, both at 10 μM). (FIG. 10E) Mammosphere Assay: HTwist and MSP were treated daily during mammosphere formation (5 days) with BMP4 (0.5 μg/ml), SB431542 (10 μM) or a combination of both, n(mammospheres)/1000 cells, n=6.
Migration and invasion assays. For migration assays, 2×10^4 cells were seeded into 24-well cell culture inserts with 8-μm pores (Boyden Chambers, BD Falcon). For invasion assays, matrigel-coated inserts (BD Falcon) were used. After 12-48 hr, the cells on the upper surface of the filters were removed with a cotton swab. For visualization, cells on lower filter surfaces were fixed and stained with a Diff-Quick staining kit (Dade Behring).

MSP-RAS cells [3] = assay: Subcutaneous tumorigenicity assay with proteins co-implanted and injected peri-tumorally; type: in vivo, mice; settings: subcutaneous limiting dilutions with protein; peri-tumoral injection at 1, 2, 3 and 7 days
Protocol: as §1
Animal studies. […] Lung surface metastases were counted using a fluorescent microscope within 3 hr of specimen isolation.

Molecule | CD24-positive cells in primary tumorspheres [1] [%] | decrease of motility in vitro (MSP-RAS cells [2]) [fold] | maximum reduction of migration (HTwist and MSP cells; HTwist or MSP cells) [fold] | reduction of tumor incidence (MSP-RAS cells [3]) | reduction of migration (HTwist and MSP cells; at the highest concentration) [fold]
B1 | 40 | 4 | ≤ 2 | at least one order of magnitude | 
B2 | 40 | 9 |  | at least one order of magnitude | 20
